{
  "source": "paper PMC4991212",
  "about": "(Cell, 2016)",
  "binders": {"B1": {"name": "UBE2C (C102A), catalytic Cys only version, in the multiubiquitination trap (enzyme, human, UniProt O00762 1-179, looked up)", "chain": "MASQNRDPAATSVAAARKGAEPSGGAARGPVGKRLQQELMTLMMSGDKGISAFPESDNLFKWVGTIHGAAGTVYEDLRYKLSLEFPSGYPYNAPTVKFLTPAYHPNVDTQGNICLDILKEKWSALYDVRTILLSIQSLLGEPNIDSPLNTHAAELWKNPTAFKKYLQETYSKQVTSQEP", "modifications": "active site Cys joined to the TMEA crosslinker"}},
  "biological_target": "APC2 (cullin subunit of APC/C) (human, UniProt Q9UJX6 1-822)",
  "test": "cryo-EM structure",
  "data": [
    {"binder": "B1", "values": [
      {"measurement": "binding result", "value": "binds"}
    ]}
  ]
}
